In US20180169233A1 (MOSAIC BIOMEDICALS S L, published 2018):

Molecular target: human LIF (source not stated) (human, UniProt P15018 23-202)
Assay: cell-based or functional assay

human LIF (source not stated), sequence (P15018 23-202 limits assumed): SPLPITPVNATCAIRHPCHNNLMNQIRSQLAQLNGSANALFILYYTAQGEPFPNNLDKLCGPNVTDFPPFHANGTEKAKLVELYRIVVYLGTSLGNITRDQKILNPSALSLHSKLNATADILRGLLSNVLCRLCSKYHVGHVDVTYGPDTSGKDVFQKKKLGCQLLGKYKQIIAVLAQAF

IC50 for biological inhibition (pSTAT3, U-251 cells, serum starved, endogenous LIF): 490 picomolar
B1: h5D8 (humanized 5D8 comprising H2 and L2) (antibody, human IgG1, kappa, V domains shown)
VH: QVQLQESGGGLVKPGGSLRLSCAASGFTFSHAWMHWVRQAPGKGLEWVGQIKAKSDDYATYYAESVKGRFTISRDDSKNTLYLQMNSLKTEDTAVYYCTCWEWDLDFWGQGTMVTVSS
VL: DIVMTQTPLSSPVTLGQPASISCRSSQSLLDSDGHTYLNWLQQRPGQPPRLLIYSVSNLESGVPDRFSGSGAGTDFTLKISRVEAEDVGVYYCMQATHAPPYTFGQGTKLEIKR
